# Experimental data: paper PMC3427372, “Proteomic Analysis Reveals New Cardiac-Specific Dystrophin-Associated Proteins” (PLoS ONE, 2012)
# Target: T1, Dystrophin (mouse (endogenous in cardiac and …, UniProt P11531 1-3678))
# T1 construct: dystrophin, mouse, the large (427 kDa) full-length form of muscle cells; also called full-length dystrophin; full length dystrophin; source: endogenous, mouse cardiac ventricle and skeletal muscle (quadriceps) lysate
# Assay: co-IP; DYS-IP (MANDYS1 cross-linked to protein G magnetic beads) from wild type mouse cardiac muscle lysate, 3 hr at 4°C, Western blot; controls IgG-IP and mdx
# Details: partners not purified
# T1 sequence (P11531 whole entry): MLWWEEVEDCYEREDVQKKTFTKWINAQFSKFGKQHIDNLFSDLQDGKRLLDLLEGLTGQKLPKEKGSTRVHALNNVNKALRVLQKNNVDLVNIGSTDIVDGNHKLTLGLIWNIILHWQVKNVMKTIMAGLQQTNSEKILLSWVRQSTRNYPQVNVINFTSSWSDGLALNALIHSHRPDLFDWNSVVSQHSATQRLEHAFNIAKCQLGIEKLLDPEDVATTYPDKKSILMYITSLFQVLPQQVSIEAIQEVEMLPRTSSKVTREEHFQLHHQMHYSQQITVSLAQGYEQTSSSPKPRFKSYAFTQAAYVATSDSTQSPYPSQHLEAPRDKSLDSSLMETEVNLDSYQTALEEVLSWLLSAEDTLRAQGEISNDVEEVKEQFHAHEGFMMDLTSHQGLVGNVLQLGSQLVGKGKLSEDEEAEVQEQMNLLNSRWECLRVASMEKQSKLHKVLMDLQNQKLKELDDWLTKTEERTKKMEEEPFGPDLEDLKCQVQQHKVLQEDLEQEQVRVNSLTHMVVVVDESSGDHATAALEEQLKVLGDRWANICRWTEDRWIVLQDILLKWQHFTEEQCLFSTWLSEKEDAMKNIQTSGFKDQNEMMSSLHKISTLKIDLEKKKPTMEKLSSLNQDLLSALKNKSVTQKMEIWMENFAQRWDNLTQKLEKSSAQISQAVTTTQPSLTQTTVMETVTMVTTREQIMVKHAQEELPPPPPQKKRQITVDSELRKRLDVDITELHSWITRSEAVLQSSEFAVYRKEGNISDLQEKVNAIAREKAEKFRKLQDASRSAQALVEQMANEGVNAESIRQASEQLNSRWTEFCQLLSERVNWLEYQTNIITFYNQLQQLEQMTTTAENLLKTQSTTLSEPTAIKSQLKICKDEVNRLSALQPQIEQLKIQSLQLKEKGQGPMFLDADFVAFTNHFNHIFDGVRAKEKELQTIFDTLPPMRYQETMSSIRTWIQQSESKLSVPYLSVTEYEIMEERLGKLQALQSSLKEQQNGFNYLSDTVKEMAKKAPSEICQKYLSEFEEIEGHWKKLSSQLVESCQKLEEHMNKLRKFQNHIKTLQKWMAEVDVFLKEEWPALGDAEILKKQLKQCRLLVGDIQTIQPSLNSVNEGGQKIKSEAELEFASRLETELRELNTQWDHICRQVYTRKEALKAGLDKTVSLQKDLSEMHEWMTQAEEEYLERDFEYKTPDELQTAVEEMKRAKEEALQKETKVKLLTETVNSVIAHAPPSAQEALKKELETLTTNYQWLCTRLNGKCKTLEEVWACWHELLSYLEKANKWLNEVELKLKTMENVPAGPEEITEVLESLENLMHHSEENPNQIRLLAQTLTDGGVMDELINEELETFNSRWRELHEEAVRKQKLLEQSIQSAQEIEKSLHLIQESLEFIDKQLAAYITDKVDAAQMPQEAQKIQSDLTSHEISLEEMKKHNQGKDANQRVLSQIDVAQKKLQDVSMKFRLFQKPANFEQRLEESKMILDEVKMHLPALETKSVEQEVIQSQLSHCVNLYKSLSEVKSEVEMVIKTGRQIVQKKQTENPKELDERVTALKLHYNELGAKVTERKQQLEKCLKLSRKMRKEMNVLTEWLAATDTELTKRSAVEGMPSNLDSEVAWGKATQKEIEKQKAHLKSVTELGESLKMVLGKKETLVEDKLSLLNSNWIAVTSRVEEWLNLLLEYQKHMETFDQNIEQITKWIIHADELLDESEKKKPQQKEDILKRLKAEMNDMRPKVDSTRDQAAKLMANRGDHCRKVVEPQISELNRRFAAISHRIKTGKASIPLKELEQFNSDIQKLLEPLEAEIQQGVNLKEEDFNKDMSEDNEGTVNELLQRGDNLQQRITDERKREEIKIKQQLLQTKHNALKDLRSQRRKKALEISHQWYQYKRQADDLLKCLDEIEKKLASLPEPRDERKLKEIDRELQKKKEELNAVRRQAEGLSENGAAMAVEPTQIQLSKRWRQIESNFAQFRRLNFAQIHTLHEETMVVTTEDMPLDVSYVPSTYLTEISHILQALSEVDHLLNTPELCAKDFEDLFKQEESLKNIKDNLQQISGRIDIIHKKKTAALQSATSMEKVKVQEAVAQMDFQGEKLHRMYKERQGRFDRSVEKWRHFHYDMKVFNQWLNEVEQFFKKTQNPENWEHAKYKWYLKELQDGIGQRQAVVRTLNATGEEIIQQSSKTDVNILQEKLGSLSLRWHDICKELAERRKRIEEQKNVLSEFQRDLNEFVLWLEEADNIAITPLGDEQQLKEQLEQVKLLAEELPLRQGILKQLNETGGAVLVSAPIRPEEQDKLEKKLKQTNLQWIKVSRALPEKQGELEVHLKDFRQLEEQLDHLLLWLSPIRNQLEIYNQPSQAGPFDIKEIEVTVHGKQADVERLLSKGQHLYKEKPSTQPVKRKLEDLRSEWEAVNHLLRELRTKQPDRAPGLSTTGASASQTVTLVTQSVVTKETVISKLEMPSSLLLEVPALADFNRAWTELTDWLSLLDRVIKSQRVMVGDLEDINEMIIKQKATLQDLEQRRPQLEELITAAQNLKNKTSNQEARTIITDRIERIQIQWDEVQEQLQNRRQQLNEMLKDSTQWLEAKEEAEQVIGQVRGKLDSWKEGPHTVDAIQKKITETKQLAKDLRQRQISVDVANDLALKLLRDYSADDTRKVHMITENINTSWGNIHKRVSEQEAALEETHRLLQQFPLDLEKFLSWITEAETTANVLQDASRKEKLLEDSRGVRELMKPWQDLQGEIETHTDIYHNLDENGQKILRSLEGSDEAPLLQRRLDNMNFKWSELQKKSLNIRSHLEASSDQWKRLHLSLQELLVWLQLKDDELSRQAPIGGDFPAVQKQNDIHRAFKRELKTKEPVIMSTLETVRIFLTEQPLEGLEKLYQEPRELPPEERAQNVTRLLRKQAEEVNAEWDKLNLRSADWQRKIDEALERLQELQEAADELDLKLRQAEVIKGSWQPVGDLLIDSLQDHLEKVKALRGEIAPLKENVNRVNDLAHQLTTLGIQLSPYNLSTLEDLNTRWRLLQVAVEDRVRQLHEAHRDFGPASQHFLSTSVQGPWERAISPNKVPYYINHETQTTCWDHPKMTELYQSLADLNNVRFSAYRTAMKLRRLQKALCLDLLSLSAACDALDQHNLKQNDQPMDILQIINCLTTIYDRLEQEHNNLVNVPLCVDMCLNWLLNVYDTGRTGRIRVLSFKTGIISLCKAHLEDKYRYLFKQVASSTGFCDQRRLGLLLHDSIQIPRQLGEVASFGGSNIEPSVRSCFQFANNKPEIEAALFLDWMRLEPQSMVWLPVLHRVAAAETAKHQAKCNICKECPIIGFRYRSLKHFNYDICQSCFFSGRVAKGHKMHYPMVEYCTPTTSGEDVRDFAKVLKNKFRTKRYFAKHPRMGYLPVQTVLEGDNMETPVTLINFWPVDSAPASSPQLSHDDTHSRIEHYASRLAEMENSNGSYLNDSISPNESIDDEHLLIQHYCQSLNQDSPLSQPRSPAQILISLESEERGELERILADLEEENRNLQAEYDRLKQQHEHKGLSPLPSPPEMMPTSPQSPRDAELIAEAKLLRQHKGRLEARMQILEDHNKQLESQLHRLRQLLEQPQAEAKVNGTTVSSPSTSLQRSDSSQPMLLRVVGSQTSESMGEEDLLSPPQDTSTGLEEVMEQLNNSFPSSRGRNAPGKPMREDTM
row,fold less associated with dystrophin in cardiac than in skeletal muscle DYS-IPs,Binder
1,~5 fold,"α1-dystrobrevin (natural protein, UniProt Q9D2N4 1-746, looked up, α-dystrobrevin splice variant α1, mouse; told apart on blots by molecular weight with a pan α-dystrobrevin antibody; also called DTNA1; source: endogenous, mouse cardiac ventricle and skeletal muscle (quadriceps) lysate) MIEDSGKRGNTMAERRQLFAEMRAQDLDRIRLSTYRTACKLRFVQKKCNLHLVDIWNVIEALRENALNNLDPNIELNVARLEAVLSTIFYQLNKRMPTTHQIHVEQSISLLLNFLLAAFDPEGHGKISVFAVKMALATLCGGKIMDKLRYIFSMISDSSGVMVYGRYDQFLREVLKLPTAVFEGPSFGYTEQSARSCFSQQKKVTLNGFLDTLMSDPPPQCLVWLPLLHRLANVENVFHPVECSYCHSESMMGFRYRCQQCHNYQLCQDCFWRGHAGGSHSNQHQMKEYTSWKSPAKKLTNALSKSLSCASSREPLHPMFPDQPEKPLNLAHIVPPRPVTSMNDTLFSHSVPSSGSPFITRSSPPKDSEVEQNKMLARAAPAFLKGRGIQYSLNVADRLADEHVLIGLYVNMLRNDPPCMLESSNRLDEEHRLIARYAARLAAESSSSQPTQQRSAPDISFTIDANKQQRQLIAELENKNREILQEIQRLRVEHEQASQPTPEKAQQNPTLLAELRLLRQRKDELEQRMSALQESRRELMVQLEGLMKLLKEEELKQGTQGASSPRSSPSHTISRPIPMPIRSASACPTPTHTPQDSLTGVGGDVQEAFAQSSRRNLRSDLLVAADSITNTMSSLVKELNSEVASETESTVDSEFSRPQFEDLAPSPTSEKAFLAQIHSRKPGYIHGGAASTTHGDMVPEDGDPYTQPEDGNYENESVRQLENELQLEEYLKQKLQDEAYQVSLQG"
2,4 fold,"β1-Syntrophin (natural protein, UniProt Q99L88 1-537, looked up, β1-syntrophin, mouse; source: endogenous, mouse cardiac ventricle and skeletal muscle (quadriceps) lysate) MAVAAAAVAAPAGGGGARAQRSGLLEVLVRDRWHKVLVNLSEDALVLSCEEGAAAYNGIGAATNGSFCRGSGTGHPVPGVAQAPDSPAGVRTAFTDLPEQVPESISNQKRGVKVLKQELGGLGISIKGGKENKMPILISKIFKGLAADQTQALYVGDAILSVNGADLRDATHDEAVQALKRAGKEVLLEVKYMREATPYVKKGSPVSEIGWETPPPESPRLGGGSAEPLSSQSFSFHRDRKSIPLKMCYVTRNMTLADPENRQLEIHSPDAKHTVILRSKDSATAQAWFSAIHSNAGDLLTRVVADIREQLGKTGIAGSREIRHLGWLAEKVPGESEKQWKPALVVLTEKDLLIYDSMPRRKEAWFSPVHSYPLLATRLVHSGPGKGSPQAGMDLSFATRTGTKQGIETHLFRAEISRDLSHWTRSIVQGCHNSAELTAEITTACTYRNQECRLTIHYDNGFSISTEPQDGAFPKTIIQSPYEKLKMSSDDGIRMLYLDFGGKEGEIQLDLHSCPKPIVFIIHSFLSAKITRLGLVA"
